In patent US20150152398, “Endoribonuclease and Methods of Use Thereof” (The Regents of the University of California, published 2015):

How the values were obtained:
[1] = molecular target: T1, TtCas6B H42A (Thermus thermophilus HB8, H42A); assay: cleavage_in_vitro; repeat R1; details: chain copies: 2 inferred; hairpin
T1 chain: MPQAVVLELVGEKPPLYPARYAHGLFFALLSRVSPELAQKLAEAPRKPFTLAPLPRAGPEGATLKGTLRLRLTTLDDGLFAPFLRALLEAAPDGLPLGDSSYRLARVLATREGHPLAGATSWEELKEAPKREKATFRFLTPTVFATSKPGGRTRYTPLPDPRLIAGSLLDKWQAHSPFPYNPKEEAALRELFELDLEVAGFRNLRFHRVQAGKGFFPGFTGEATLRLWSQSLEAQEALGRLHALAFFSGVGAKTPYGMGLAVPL
From the text: FIG. 22 illustrates that TtCas6A and TtCas6B both cleave repeats R1 and R3 and retain their cleaved products. (A) Sequences and predicted secondary structures of T. thermophilus CRISPR repeats. Sites of cleavage are indicated with blue arrows. TtCas6e (TTHB192) cleaves repeat R2, while TtCas6A (TTHA0078) and TtCas6B (TTHB231) both cleave repeats R1 and R3. (B) Cleavage product binding affinities of TtCas6A and TtCas6B enzymes. Maltose binding protein (MBP)-fused TtCas6A or TtCas6B were bound to in 5′-radiolabelled, vitro transcribed R1 and R3 RNAs. Bound and unbound fractions were resolved by electrophoresis on a native polyacrylamide gel and visualized by phosphorimaging. The data for these and all subsequent binding assays were fit with standard binding isotherms (solid line). […] RNA cleavage was monitored using denaturing polyacrylamide gel electrophoresis. […]
(§1) To shed light on the catalytic mechanism of TtCas6A and TtCas6B, we performed cleavage assays using wild type proteins as well as active site mutants TtCas6A H37A and TtCas6B H42A using repeat R1 as a substrate (FIG. 2C). The first order rate constant determined under single-turnover conditions for wild type TtCas6A (3.2 min⁻¹) and TtCas6B (3.7 min⁻¹) are in good agreement with first order rate constants previously determined for PaCas6f and TtCas6e. […]

[2] = molecular target: T2, TtCas6A H37A (Thermus thermophilus HB8, H37A); assay: cleavage_in_vitro; almost inactive; rate enhanced about 360-fold with 500 mM imidazole; details: chain copies: 2 inferred; hairpin
T2 chain: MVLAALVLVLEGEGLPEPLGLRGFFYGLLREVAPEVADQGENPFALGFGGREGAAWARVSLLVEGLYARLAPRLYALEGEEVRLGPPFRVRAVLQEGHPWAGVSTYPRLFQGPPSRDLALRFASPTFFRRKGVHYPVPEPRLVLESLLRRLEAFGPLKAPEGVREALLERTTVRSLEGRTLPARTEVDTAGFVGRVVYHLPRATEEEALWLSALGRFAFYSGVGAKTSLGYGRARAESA
From the text: Sites of cleavage are indicated with blue arrows. TtCas6e (TTHB192) cleaves repeat R2, while TtCas6A (TTHA0078) and TtCas6B (TTHB231) both cleave repeats R1 and R3. (B) Cleavage product binding affinities of TtCas6A and TtCas6B enzymes. Maltose binding protein (MBP)-fused TtCas6A or TtCas6B were bound to in 5′-radiolabelled, vitro transcribed R1 and R3 RNAs. Bound and unbound fractions were resolved by electrophoresis on a native polyacrylamide gel and visualized by phosphorimaging. The data for these and all subsequent binding assays were fit with standard binding isotherms (solid line). Error bars on each data point denote standard error of the mean (SEM) from three independent experiments. (C) Experiments to confirm single turnover. RNA cleavage assays were carried out at indicated protein:RNA ratios. RNA cleavage was monitored using denaturing polyacrylamide gel electrophoresis. […]
as §1

[3] = molecular target: T3, TtCas6A (TTHA0078, Cas6) (Thermus thermophilus HB8); assay: EMSA; Kd in FIG. 25D only; details: chain copies: 2 stated (dimer in solution); hairpin
T3 chain: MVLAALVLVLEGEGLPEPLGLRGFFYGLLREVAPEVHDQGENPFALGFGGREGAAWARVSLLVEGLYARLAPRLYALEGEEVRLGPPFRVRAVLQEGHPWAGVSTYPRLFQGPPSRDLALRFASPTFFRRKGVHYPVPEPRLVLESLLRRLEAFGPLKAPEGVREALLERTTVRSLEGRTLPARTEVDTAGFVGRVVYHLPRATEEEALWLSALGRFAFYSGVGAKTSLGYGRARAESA

[4] = molecular target: T3, TtCas6A (TTHA0078, Cas6); assay: structure; crystal structure of cleaved R1 product complex, 2:1 in crystal; details: chain copies: 2 stated (dimer in solution); label: 5'-32P (EMSA); hairpin
From the text: (§2) To determine how TtCas6A and TtCas6B bind and cleave their RNA substrates, we solved crystal structures of these proteins both alone and in complexes with their cognate RNAs (FIG. 23A, FIG. 30). For TtCas6A, we obtained a structure of the enzyme bound to a substrate mimic based on the R1 repeat sequence, consisting of the R1 stem-loop flanked by two additional nucleotides on either end of the stem. Cleavage of the substrate mimic RNA was prevented by introducing a 2′-deoxyribonucleotide at the G28 position, thereby removing the 2′-hydroxyl nucleophile required for the cleavage reaction. In addition to the substrate mimic complex, a crystal structure of a complex of TtCas6A and a cleaved RNA product was obtained when full-length R1 repeat was bound to wild-type TtCas6A and allowed to undergo cleavage during subsequent complex purification and crystallization. Finally, we determined the crystal structure of the TtCas6A H37A mutant, lacking a critical active site residue, in the absence of bound RNA. For TtCas6B, we determined crystal structures of the wild-type enzyme alone and in complex with a product of the R3 repeat cleavage reaction.

[5] = molecular target: T3, TtCas6A (TTHA0078, Cas6); assay: EMSA; deletion of nt 1-8 had little effect on affinity; details: chain copies: 2 stated (dimer in solution); hairpin
[6] = molecular target: T4, TtCas6B (TTHB231, Cas6) (Thermus thermophilus HB8); assay: structure; crystal structure of R3 product complex, 2:2; details: chain copies: 2 stated (dimer in solution); label: 5'-32P (EMSA); hairpin
T4 chain: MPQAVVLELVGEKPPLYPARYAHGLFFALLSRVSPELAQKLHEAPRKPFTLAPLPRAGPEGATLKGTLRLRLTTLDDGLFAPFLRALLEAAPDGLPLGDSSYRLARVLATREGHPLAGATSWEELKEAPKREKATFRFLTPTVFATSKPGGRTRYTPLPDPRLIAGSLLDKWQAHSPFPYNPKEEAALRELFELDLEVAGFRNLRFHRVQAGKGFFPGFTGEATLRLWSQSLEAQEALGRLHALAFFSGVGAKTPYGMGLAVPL

[7] = molecular target: T3, TtCas6A (TTHA0078, Cas6); assay: structure; crystal structure of substrate mimic complex, 2:1 in crystal; details: chain copies: 2 stated (dimer in solution); hairpin
From the text: as §2

[8] = molecular target: T3, TtCas6A (TTHA0078, Cas6); assay: 5' truncation series, FIG. 5; details: chain copies: 2 stated (dimer in solution); hairpin

B1: R1 nt 1-30 (ssRNA)
RNA: GUUGCAAGGGAUUGAGCCCCGUAAGGGGAU
Work on B1 yielded an activity [1] of roughly 300 fold cleavage defect and an activity [2] of roughly 17000 fold cleavage defect.

B2: R1 deletion of nt 1-13 (ssRNA)
RNA: GAGCCCCGUAAGGGGAU
B2 was tested, and the “fold increase in Kd relative to full R1” value [3] was ~900 fold higher Kd than full R1.

B3: R1 repeat RNA (Tt_R1) (ssRNA)
RNA: GUUGCAAGGGAUUGAGCCCCGUAAGGGGAUUGCGAC
B3: binds [4].

B4: R1 deletion of nt 1-8 (ssRNA)
RNA: GGAUUGAGCCCCGUAAGGGGAU
B4: binds [5].

B5: R3 repeat RNA (Tt_R2 in Example 1) (ssRNA)
RNA: GUUGCAAACCUCGUUAGCCUCGUAGAGGAUUGAAAC
B5: binds [6].

B6: R1 substrate mimic (nt 15-30, 2'-deoxy G28) (ssRNA)
RNA: AGCCCCGUAAGGGGAU
modifications: 2'-deoxy at G28
B6: binds [7].

B7: R1 nt 7-29 (ssRNA)
RNA: AGGGAUUGAGCCCCGUAAGGGGA
With B7 the binding signal [8] was 2.3 fold stronger than nt 8-29.
